Assay: In vitro BrM permeation assay, Ussing chamber
Format: in vitro ADME, porcine
Details: 0.1 mg/ml, up to 72 h, in words
Method: Porcine Bruch's membrane samples are used for this measurement. Porcine eyes are collected from the slaughterhouse) no more than 6 hours after the animals were sacrificed and stored at 4° C. until use (on same day).
Preparation of enriched Bruch's Membrane (BrM): The eyes are placed into a disposable petri-dish and any residual tissue surrounding the eyeball is removed. The eyeball is incised next to the iris with a scalpel and the front part of the eye as well as lens, vitreous and retinal tissue are removed from the eyecup. […]
Sampling and membrane integrity analysis: For sampling at different timepoints (4 h, 24 h, 48 h and 72 h) the solution in the single compartments is mixed by carefully pipetting up and down and 90 μl were transferred separately from each sample and diffusate chamber to collection tubes. […] Accumulation of blue particles in the second compartment is observed and camera pictures are recorded to control for overall membrane integrity.
Sample analysis: 15 μl of each solution from the sample and diffusate chambers are effectively loaded on 2 precast polyacrylamide gels (NuPAGE Bis-Tris gels) together with a similar amount of stored mastermix as loading control. The first gel is analyzed by standard SDS-PAGE and Coomassie-based staining methods for protein detection (anti-C3 scFv). […]
Evaluation: Pictures of the SDS-gels are analyzed using ImageJ2 software (Fiji). […]

Gly-I-[CV-Trp(Me)-QDWGAHRC]-T-NH2 [Compound A2]
Diffusion/penetration through porcine Bruch's membrane: No penetration

From patent publication US12344663B2, “Anti-C3 antibodies and antigen-binding fragments thereof and their uses for treating eye or ocular diseases” (CDR-Life AG, priority 2021, dated 2025)
